According to PMC9234716, “Comparative analysis defines a broader FMRFamide-gated sodium channel family and determinants of neuropeptide sensitivity” (The Journal of Biological Chemistry, 2022):
Positions count from the first letter of the chain named. Where no end group is shown, it is not given here.

Experiments:
Octopus FaNaC = test: Peptide-gated currents at oocytes expressing Octopus FaNaC; type: cell-based, Octopus bimaculoides; settings: peptides at 100 μM
Text: (§1) Figure 1 Phylogenetic and experimental characterization of the FaNaC family.A, FaNaC branch from DEG/ENaC phylogeny (full phylogeny in Fig. S1). ∗Genes tested here. ∞Genes tested elsewhere. Genes in bold encode peptide-gated channels. aLRT support for key branches is shown. Blue background, broader FaNaC family; green background, annelid-specific branch of FaNaCs with diverse ligand sensitivity; pink background, Wamide-activated channels (WaNaCs). B, example peptide-gated currents at Xenopus oocytes expressing indicated genes. All peptide applications 100 μM, except for some at Capitella FaNaC: FMRFa, FLRPa, FLRFa, and FMKFa (3 μM); LFRYa (30 μM). The scale bars represent x, 10 s; y, 5 μA. C, mean (± SEM) normalized current response to different peptides (concentrations as in (B)) at oocytes expressing indicated channels. Lighter symbols are individual data points, n = 4 to 7. FaNaC, FMRFa-gated sodium channel; FMRFa, Phe-Met-Arg-Phe-amide.

[1] = tested on: Malacoceros WaNaC^ON156824; test: Two-electrode voltage clamp of Xenopus oocytes expressing Malacoceros WaNaC ON156824; type: cell-based, Malacoceros fuliginosus; settings: WT channel, n = 9, mean ± SEM, read-out: KWGGNSRMWa EC50
Capitella WaNaC^212912 = test: Two-electrode voltage clamp of Xenopus oocytes expressing Capitella WaNaC 212912; type: cell-based, Capitella teleta
Procedure: (§2) Defolliculated stage V/VI oocytes from X. laevis were commercially acquired (Ecocyte Bioscience) and stored at 18 °C in 50% (in water) Leibovitz’s L-15 medium (Gibco) supplemented with additional 0.25 mg/ml gentamicin, 1 mM L-glutamine, and 15 mM Hepes, pH 7.6. Oocytes were injected with 2 ng cRNA (WT or mutant Aplysia FaNaC) and 2 to 60 ng cRNA (WT C. gigas XM_011442205.2, O. bimaculoides XM_014930938.1, L. gigantea XM_009055314.1_160261, P. fucata pfu_aug2.0_4392.1_09318.t1, C. teleta Capca1_207658, Capca1_52833, Capca1_185559, and Capca1_212912, M. lignano Mlig049925.g2, Mlig051885.g1, and Mlig041003.g1, P. australis g6004.t1 and g5063.t1 and R. norvegicus NP_077068.1 (rat ASIC1a) and respective mutants). Two-electrode voltage clamp experiments were performed 1 to 3 days after injection. The oocyte was placed in an RC-3Z bath (Warner Instruments) and bath solution (NaCl: 96 mM, KCl: 2 mM, CaCl2: 1.8 mM, MgCl2: 1 mM, Hepes: 5 mM; pH: 7.5) was perfused continuously and rapidly switched to bath solution containing peptide ligands via the VCS-8-pinch valve control perfusion system (Warner Instruments). […] Peptides were applied at varying concentrations between 30 nM and 100 μM for concentration-response experiments. […] Current recordings were analyzed in Clampfit 11.1 (Molecular Devices). […]

Capitella FaNaC^52833 = test: Two-electrode voltage clamp of Xenopus oocytes expressing Capitella FaNaC 52833; type: cell-based, Capitella teleta; settings: WT; LFRYa 30 μM
Procedure: as §2

rat ASIC1a [2] = biological target: T1, rat ASIC1a (Rattus norvegicus, UniProt P55926, K246A); test: FRRFa enhancement of pH-gated currents at oocytes expressing WT or mutant rat ASIC1a; type: cell-based; settings: K246A mutant; 50 μM FRRFa; n = 6
T1 construct: R. norvegicus NP_077068.1 (rat ASIC1a) and respective mutants; expressed in transfected cells; host or cells: Xenopus laevis oocytes (cRNA injection)
T1 sequence (P55926 1-526 K246A): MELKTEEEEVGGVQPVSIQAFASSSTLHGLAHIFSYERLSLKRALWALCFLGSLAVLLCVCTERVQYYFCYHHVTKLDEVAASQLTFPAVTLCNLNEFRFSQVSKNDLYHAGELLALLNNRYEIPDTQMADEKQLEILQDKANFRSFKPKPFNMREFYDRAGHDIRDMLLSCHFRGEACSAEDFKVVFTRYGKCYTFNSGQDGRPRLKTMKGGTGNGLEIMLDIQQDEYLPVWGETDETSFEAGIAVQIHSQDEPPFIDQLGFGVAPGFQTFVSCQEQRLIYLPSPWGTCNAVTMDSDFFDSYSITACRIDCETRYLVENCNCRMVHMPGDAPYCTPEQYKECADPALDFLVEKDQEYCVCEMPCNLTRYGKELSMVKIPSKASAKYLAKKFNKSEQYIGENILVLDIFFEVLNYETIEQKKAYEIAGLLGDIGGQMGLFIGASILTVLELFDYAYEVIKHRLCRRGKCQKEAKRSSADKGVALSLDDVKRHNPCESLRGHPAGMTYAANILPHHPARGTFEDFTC
Procedure: (§3) Figure 6 Determinants of FRRFa modulation of rat ASIC1a.A, pH 5.3 (filled black bars)-gated currents after preincubation in desensitizing pH (unfilled bars) alone or in 50 μM FRRFa (blue bars) at oocytes expressing WT or mutant rat ASIC1a (rASIC1a). The scale bars represent x, 10 s; y, 200 nA. Desensitizing pH described in Figure S4. B, mean (± SEM, n = 4–7) enhancement (currentb/currenta from (A)) of desensitized current amplitude by 50 μM FRRFa at indicated rat ASIC1a mutants. ASIC, acid-sensing ion channel.
(§4) Figure S4. Measurement of steady state desensitization and peptide modulation of rat ASIC1a mutants. (A) Left, example currents at an oocyte expressing a rat ASIC1a mutant in response to decreasing pH. Right, mean (± SEM, n = 3-4) normalized currents in response to decreasing pH. (B) Left, example currents at an oocyte expressing a rat ASIC1a mutant in response to pH 5.3 after pre-incubation in decreasing pH. Right, mean (± SEM, n = 3-4) normalized currents in response to decreasing pre-incubation pH. This established that pH 6.9 was strongly desensitizing for WT and most mutants, and pH 6.7 was strongly desensitizing for mutants K246A and V377A. (C) Example experiment showing: current response to activating pH (5.3) after pre-incubation in resting pH 7.8; current response ("a") to activating pH after 20 s pre-incubation in desensitizing pH (6.7 for this mutant); and current response ("b") to activating pH after 20 s pre-incubation in desensitizing pH plus 50 μM FRRFa. Dividing current amplitude "b" by that of "a" gives fold-enhancement by FRRFa in Fig. 6B. All scale bars: x, 10 s; y, 10 μA.

rat ASIC1a [3] = biological target: T2, rat ASIC1a (Rattus norvegicus, UniProt P55926); test: as above; type: cell-based; settings: WT; 50 μM FRRFa; pH 5.3 after preincubation in desensitizing pH; n = 7
T2 construct: R. norvegicus NP_077068.1 (rat ASIC1a) and respective mutants; expressed in transfected cells; host or cells: Xenopus laevis oocytes (cRNA injection)
T2 sequence (P55926 1-526): T1 sequence (P55926 1-526 K246A) with A246K
Procedure: as §3, §4

rat ASIC1a [4] = biological target: T3, rat ASIC1a (Rattus norvegicus, UniProt P55926, S274A); test: as above; type: cell-based; settings: S274A mutant; 50 μM FRRFa; n = 6
T3 construct: R. norvegicus NP_077068.1 (rat ASIC1a) and respective mutants; expressed in transfected cells; host or cells: Xenopus laevis oocytes (cRNA injection)
T3 sequence (P55926 1-526 S274A): T1 sequence (P55926 1-526 K246A) with A246K, S274A
Procedure: as §3, §4

Crassostrea FaNaC = test: Peptide-gated currents at oocytes expressing Crassostrea FaNaC; type: cell-based, Crassostrea gigas; settings: peptides at 100 μM
Text: as §1

[5] = biological target: T4, rat ASIC1a (acid-sensing ion channel 1a) (rat) (UniProt P55926)
T4 sequence: T1 sequence (P55926 1-526 K246A) with A246K

rat ASIC1a S274A (rat) = biological target: T5, rat ASIC1a S274A (rat) (UniProt P55926)
T5 sequence: T1 sequence (P55926 1-526 K246A) with A246K, S274A

[6] = biological target: Aplysia kurodai FaNaC S184A (Aplysia kurodai)
[7] = biological target: Aplysia kurodai FaNaC (FMRFa-gated sodium channel) (Aplysia kurodai)
[8] = biological target: Capitella teleta FaNaC^52833 (Capitella teleta)
[9] = biological target: Malacoceros fuliginosus FaNaC^ON156826 (Malacoceros fuliginosus)
[10] = biological target: Malacoceros fuliginosus FaNaC^ON156825 (Malacoceros fuliginosus)
[11] = biological target: Malacoceros fuliginosus WaNaC^ON156824 (Malacoceros fuliginosus)
[12] = biological target: Capitella teleta WaNaC^212912 (Wamide-gated sodium channel) (Capitella teleta)

FMKFa: peptide encoded by the Octopus FMRFa propeptide (FMKF-NH2)
current amplitude relative to FMRFa (Octopus FaNaC): larger currents than FMRFa

KWGGNSRMW-NH2 [KWGGNSRMWa]
EC50 [1]: 0.34 ± 0.1 µM

AWVGDKSLSW-NH2 [AWVGDKSLSWa]
AWVGDKSLSWa-gated currents (Capitella WaNaC^212912; R255Q, R291N and R472Q mutations): abolished
EC50 (Capitella WaNaC^212912; WT channel, Xenopus oocytes, n = 8, mean ± SEM, read-out: AWVGDKSLSWa EC50): 2 ± 0.2 µM

LFRYa: product of the RYamide propeptide from Capitella (LFRY-NH2)
current response to peptide (Capitella FaNaC^52833): small currents

FRRFa: synthetic FMRFa analog that enhances ASICs (FRRF-NH2)
enhancement of pH-gated currents (rat ASIC1a [2]): not ostensibly enhanced at all
enhancement of pH-gated currents (rat ASIC1a [3]): 10 ± 3 fold
enhancement of pH-gated currents (rat ASIC1a [4]): 2 ± 0.3 fold

FLRFa: peptide encoded by the Octopus FMRFa propeptide (FLRF-NH2)
current amplitude relative to FMRFa (Octopus FaNaC): larger currents than FMRFa
current amplitude relative to FMRFa (Crassostrea FaNaC): slightly larger currents than FMRFa

FRRF-NH2 [FRRFa]
fold enhancement of desensitized pH 5.3-gated current by 50 μM FRRFa, two-electrode voltage clamp on Xenopus oocytes [5]: 10 fold
fold enhancement of desensitized pH 5.3-gated current by 50 μM FRRFa, two-electrode voltage clamp on Xenopus oocytes (rat ASIC1a S274A (rat)): 2 fold

FMRF-NH2 [FMRFamide (Phe-Met-Arg-Phe-amide)]
EC50 of FMRFa-gated current, full concentration-response, two-electrode voltage clamp on Xenopus oocytes [6]: 30 µM
EC50 of FMRFa-gated current, two-electrode voltage clamp on Xenopus oocytes [7]: 3.4 µM
I (3 μM)/I (30 μM) ratio of FMRFa potency (3 μM FMRFa-gated current amplitude/30 μM FMRFa-gated current amplitude) [7]: 0.64
EC50 of peptide-gated current, two-electrode voltage clamp on Xenopus oocytes [8]: 0.35 µM
EC50 of peptide-gated current, two-electrode voltage clamp on Xenopus oocytes [9]: 11 µM
EC50 of peptide-gated current, two-electrode voltage clamp on Xenopus oocytes [10]: 0.23 µM

KWGGNSRMW-NH2
EC50 of peptide-gated current, two-electrode voltage clamp on Xenopus oocytes [11]: 0.34 µM

AWVGDKSLSW-NH2
EC50 of peptide-gated current, two-electrode voltage clamp on Xenopus oocytes [12]: 2 µM
